Experimental data: US20110039770A1 (PHARMAGAP, published 2011)
Like-named read-outs stand apart in the source and are kept apart here.

B1: PRE 13 (peptide)
peptide: Ac-RDAQNLI-NH2
notes: Ac-RDAQNLI-NH2; also called peptide recognition element 13
B2: PRE 4 (peptide)
peptide: Ac-KDAQNLIGISI-NH2
notes: also called peptide recognition element 4
B3: PRE 11 (peptide)
peptide: Ac-RDAQNLIGISI-NH2
notes: also called peptide recognition element 11

How the values were obtained:
PKC-ε = target: T1, PKC-ε (UniProt Q02156 1-737); test: cell-based or functional assay
T1 sequence (looked up): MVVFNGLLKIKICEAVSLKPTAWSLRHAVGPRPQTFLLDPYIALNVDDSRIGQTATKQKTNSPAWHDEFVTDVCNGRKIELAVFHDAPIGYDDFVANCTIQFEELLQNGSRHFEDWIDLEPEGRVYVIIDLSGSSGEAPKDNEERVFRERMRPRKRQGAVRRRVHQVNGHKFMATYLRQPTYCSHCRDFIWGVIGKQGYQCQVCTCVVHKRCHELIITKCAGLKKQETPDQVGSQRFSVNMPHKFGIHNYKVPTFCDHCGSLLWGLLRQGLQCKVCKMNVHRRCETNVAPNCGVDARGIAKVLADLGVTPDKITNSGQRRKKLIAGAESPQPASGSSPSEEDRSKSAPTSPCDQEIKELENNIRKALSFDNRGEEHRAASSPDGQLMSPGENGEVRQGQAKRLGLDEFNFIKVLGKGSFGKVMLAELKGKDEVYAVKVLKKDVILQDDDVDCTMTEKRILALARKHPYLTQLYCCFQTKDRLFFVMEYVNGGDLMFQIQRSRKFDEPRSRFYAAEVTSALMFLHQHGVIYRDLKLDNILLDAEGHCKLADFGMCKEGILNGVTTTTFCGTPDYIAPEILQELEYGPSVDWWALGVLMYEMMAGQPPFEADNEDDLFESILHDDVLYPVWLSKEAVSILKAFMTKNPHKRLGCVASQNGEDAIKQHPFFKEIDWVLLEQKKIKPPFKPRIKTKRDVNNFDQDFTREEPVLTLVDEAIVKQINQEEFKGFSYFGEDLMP

PKC-α = PKC-α (UniProt P17252 1-672, limits assumed); test: cell-based or functional assay
PKC-βI = PKC-βI (UniProt P05771-1 1-671, limits assumed); test: cell-based or functional assay
Chain of PKC-βI (P05771 whole entry, canonical isoform): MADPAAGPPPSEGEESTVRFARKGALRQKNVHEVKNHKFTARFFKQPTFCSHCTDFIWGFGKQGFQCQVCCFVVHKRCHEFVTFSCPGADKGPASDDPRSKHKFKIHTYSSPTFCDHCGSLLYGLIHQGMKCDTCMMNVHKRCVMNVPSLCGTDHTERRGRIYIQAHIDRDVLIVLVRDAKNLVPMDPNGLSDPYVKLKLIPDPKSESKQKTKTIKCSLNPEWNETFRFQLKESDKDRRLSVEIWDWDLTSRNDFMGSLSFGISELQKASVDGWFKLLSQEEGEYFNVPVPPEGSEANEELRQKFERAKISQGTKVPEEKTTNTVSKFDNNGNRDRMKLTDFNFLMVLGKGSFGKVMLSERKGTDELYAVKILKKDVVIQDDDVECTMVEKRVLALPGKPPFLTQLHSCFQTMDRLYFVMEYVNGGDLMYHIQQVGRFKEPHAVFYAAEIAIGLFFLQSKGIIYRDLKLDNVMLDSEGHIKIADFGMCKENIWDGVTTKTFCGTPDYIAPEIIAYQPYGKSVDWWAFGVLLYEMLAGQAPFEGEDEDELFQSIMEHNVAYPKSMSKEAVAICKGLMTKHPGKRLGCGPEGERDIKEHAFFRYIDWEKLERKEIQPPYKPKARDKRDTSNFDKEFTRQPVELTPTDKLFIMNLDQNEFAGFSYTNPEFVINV

[1] = target: T2, PKC-βII, purified isoform (UniProt P05771-2 1-673); test: purified isoform competition ELISA, summary grade
T2 construct: also called PKC-beta II; beta 2
T2 sequence (P05771 other isoform, or with tags, fused parts or gaps limits assumed): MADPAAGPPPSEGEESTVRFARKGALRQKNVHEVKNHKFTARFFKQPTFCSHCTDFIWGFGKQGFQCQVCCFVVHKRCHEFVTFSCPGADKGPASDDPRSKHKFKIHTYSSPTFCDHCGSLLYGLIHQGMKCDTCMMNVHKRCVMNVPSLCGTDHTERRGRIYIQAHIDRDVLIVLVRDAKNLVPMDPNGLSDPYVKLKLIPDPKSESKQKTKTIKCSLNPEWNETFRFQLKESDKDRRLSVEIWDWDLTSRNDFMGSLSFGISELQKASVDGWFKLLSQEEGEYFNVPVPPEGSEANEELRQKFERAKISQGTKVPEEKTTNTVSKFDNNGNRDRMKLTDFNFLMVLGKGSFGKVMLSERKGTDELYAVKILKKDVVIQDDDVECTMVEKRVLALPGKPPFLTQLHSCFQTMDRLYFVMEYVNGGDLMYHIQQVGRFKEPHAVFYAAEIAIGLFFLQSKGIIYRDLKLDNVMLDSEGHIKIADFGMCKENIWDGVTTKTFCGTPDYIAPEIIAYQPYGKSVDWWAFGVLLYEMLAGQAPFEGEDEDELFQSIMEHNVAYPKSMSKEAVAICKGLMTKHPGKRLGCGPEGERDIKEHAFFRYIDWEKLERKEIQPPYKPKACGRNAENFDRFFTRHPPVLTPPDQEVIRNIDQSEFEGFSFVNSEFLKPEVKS

PKC-ε, purified isoform [2] = target: T3, PKC-ε, purified isoform (UniProt Q02156 1-737); test: purified isoform competition ELISA, summary grade
T3 construct: also called PKC-epsilon; epsilon
T3 sequence (looked up): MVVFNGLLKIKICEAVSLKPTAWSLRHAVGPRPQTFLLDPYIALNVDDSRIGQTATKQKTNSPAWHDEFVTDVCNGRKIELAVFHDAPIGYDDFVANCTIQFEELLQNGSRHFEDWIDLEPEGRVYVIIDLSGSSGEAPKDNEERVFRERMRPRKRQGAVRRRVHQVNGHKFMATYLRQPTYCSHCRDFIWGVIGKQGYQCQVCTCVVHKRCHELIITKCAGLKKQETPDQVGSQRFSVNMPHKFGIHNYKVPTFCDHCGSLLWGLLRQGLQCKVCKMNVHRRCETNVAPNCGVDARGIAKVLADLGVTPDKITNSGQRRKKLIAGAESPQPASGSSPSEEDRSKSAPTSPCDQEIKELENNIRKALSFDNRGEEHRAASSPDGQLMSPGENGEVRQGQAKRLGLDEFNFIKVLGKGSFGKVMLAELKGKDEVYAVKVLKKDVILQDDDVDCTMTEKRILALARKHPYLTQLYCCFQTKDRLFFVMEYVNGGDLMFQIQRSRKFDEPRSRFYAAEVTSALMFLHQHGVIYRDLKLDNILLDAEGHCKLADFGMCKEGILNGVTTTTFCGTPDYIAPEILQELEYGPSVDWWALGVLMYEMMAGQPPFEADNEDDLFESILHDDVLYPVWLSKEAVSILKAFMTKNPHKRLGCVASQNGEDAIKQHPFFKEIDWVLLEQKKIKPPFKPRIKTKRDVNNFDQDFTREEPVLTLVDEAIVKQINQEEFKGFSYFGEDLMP

PKC-βI, purified isoform = target: T4, PKC-βI, purified isoform (UniProt P05771-1 1-671); test: purified isoform competition ELISA, summary grade
T4 construct: also called PKC-beta I; beta 1
T4 sequence (P05771 whole entry, canonical isoform): as the sequence (P05771 whole entry, canonical isoform) above

[3] = target: T5, PKC-ε in extracts of human cell lines (human, UniProt Q02156 1-737); test: Western-blot competition, cell extracts: PRE at 10X/20X the anti-PKC epsilon primary antibody concentration competes with that antibody; band densitometry (lower band = PRE bound)
T5 construct: Denatured on the Western blot membrane; also called PKC-epsilon (cell extract)
T5 sequence (looked up): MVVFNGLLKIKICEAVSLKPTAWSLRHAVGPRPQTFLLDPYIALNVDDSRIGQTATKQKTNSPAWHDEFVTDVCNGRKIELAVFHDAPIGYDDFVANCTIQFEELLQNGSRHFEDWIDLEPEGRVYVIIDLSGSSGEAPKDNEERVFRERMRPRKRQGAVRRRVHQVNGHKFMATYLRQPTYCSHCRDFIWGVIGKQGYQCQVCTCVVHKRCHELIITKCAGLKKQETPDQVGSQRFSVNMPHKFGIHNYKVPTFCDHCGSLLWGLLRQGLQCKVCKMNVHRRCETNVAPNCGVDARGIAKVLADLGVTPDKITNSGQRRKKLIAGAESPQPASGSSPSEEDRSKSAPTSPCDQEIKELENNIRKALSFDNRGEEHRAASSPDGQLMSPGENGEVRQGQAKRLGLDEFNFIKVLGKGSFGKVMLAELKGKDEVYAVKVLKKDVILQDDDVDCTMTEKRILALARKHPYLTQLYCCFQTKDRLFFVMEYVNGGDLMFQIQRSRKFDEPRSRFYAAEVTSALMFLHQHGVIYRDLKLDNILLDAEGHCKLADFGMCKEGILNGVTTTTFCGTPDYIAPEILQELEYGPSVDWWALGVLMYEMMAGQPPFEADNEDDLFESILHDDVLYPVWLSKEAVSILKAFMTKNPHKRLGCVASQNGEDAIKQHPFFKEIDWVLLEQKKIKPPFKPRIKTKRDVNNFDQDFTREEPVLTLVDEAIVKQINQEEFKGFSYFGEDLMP

PKC-ε, purified isoform [4] = target: T3, PKC-ε, purified isoform; test: competition ELISA on coated purified PKC-ε vs anti-PKC ε antibody; PRE 50 µM
[5] = target: T6, PKC-βI in extracts of human cell lines (human, UniProt P05771-1 2-671); test: Western-blot competition, cell extracts: PRE at 10X/20X the anti-PKC beta I primary antibody concentration competes with that antibody; band densitometry (lower band = PRE bound)
T6 construct: Denatured on the Western blot membrane; beta I splice form; also called PKC-beta I (cell extract)
T6 sequence (P05771 2-671 limits assumed): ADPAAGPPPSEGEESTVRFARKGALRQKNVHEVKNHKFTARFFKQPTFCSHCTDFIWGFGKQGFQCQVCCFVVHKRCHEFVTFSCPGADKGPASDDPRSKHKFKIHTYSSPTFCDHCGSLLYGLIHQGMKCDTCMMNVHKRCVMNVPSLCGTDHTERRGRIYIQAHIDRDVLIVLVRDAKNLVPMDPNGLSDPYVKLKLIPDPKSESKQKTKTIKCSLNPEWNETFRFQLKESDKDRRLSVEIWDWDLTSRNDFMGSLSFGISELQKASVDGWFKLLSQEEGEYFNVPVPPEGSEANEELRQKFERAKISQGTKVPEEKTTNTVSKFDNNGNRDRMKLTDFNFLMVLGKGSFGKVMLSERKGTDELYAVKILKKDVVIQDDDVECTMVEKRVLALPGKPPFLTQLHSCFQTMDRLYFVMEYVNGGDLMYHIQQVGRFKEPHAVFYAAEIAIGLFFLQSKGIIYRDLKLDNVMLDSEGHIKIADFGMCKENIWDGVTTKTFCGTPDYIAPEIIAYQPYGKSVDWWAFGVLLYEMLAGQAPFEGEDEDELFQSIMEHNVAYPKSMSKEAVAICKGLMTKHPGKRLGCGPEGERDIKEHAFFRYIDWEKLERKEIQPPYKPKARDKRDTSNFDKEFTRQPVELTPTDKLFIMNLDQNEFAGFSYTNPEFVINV

[6] = target: T7, PKC-ζ in extracts of human cell lines (human, UniProt Q05513 1-592); test: Western-blot competition, cell extracts: PRE at 10X/20X the anti-PKC zeta primary antibody concentration competes with that antibody; band densitometry (lower band = PRE bound)
T7 construct: Denatured on the Western blot membrane; also called PKC-zeta (cell extract)
T7 sequence (looked up): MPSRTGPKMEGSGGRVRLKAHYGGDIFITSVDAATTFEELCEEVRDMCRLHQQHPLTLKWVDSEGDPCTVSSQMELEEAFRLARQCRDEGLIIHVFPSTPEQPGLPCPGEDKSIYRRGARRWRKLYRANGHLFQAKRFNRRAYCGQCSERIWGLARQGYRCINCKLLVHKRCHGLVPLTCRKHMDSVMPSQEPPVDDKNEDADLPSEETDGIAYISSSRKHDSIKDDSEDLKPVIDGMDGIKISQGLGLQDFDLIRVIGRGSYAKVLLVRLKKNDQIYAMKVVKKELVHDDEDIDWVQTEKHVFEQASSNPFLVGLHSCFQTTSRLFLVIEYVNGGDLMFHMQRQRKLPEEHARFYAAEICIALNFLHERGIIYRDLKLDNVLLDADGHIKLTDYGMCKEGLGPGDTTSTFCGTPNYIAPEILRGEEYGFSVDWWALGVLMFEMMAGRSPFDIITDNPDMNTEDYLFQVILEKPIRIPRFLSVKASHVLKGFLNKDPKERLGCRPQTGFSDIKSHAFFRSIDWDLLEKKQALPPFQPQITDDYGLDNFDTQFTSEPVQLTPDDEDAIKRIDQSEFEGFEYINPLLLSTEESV

PKC-ε, purified isoform [7] = target: T3, PKC-ε, purified isoform; test: competition ELISA on coated purified PKC-ε vs anti-PKC ε antibody; PRE 200 µM
[8] = target: T8, PKC-ι in extracts of human cell lines (human, UniProt P41743 2-596); test: Western-blot competition, cell extracts: PRE at 10X/20X the anti-PKC iota primary antibody concentration competes with that antibody; band densitometry (lower band = PRE bound)
T8 construct: Denatured on the Western blot membrane; also called PKC-iota (cell extract)
T8 sequence (looked up): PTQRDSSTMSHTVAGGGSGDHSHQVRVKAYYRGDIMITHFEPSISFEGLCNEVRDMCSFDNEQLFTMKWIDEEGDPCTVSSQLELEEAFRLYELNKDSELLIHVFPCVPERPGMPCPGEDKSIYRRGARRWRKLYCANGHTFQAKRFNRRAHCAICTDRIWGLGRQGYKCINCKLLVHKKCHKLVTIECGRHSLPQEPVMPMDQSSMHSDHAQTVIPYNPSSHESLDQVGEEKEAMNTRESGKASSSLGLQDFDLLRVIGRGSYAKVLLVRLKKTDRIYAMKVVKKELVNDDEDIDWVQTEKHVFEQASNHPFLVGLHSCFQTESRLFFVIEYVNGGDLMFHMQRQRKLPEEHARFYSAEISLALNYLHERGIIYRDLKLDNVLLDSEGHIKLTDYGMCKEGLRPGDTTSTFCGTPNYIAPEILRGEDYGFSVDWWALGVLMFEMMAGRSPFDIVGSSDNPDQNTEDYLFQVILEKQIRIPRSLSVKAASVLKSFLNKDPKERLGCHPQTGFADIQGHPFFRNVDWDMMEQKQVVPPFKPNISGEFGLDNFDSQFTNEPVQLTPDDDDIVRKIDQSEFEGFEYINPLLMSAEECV

PKC-ε, purified isoform [9] = target: T3, PKC-ε, purified isoform; test: competition ELISA on coated purified PKC-ε vs anti-PKC ε antibody; PRE 100 µM
[10] = target: T8, PKC-ι in extracts of human cell lines; test: Western-blot competition, cell extracts: PRE at 10X/20X the anti-PKC iota primary antibody concentration competes with that antibody; band densitometry (lower band = PRE bound); remark: listed apart in the source
[11] = target: T7, PKC-ζ in extracts of human cell lines; test: Western-blot competition, cell extracts: PRE at 10X/20X the anti-PKC zeta primary antibody concentration competes with that antibody; band densitometry (lower band = PRE bound); remark: listed apart in the source

Row | Binder | % Inhibition of kinase activity (Kinase-Glo), compound at 5.0 µM (PKC-ε) [%] | % Inhibition of kinase activity (Kinase-Glo), compound at 30.0 µM (PKC-ε) [%] | % Inhibition of kinase activity (Kinase-Glo), compound at 5.0 µM (PKC-α) [%] | % Inhibition of kinase activity (Kinase-Glo), compound at 30.0 µM (PKC-α) [%] | % Inhibition of kinase activity (Kinase-Glo), compound at 5.0 µM (PKC-βI) [%] | % Inhibition of kinase activity (Kinase-Glo), compound at 30.0 µM (PKC-βI) [%] | relative binding capacity (PKC-ε, purified isoform [4]) [%] | relative binding capacity (PKC-ε, purified isoform [7]) [%] | relative binding capacity (PKC-ε, purified isoform [9]) [%] | also measured
1 | Ac-FRRCFRLGGGGGGGAKGIQEVKGGDAQNLIGISI-NH2 [Compound TIM 18 (PRE 3 and PKI 4)] | -28 | 1 | 100 | 100 | 76.3 | 76.1 |  |  |  | 
2 | B1 |  |  |  |  |  |  | 0 | 0.85 | 0 | binding result [1]: no binding; binding result (PKC-ε, purified isoform [2]): no binding; binding result (PKC-βI, purified isoform): no binding; binding result [3]: no binding (tested: 20X the primary antibody concentration); binding result [5]: no binding (tested: 20X the primary antibody concentration); binding result [6]: no binding (tested: 20X the primary antibody concentration); binding result [8]: no binding (tested: 20X the primary antibody concentration)
3 | B2 |  |  |  |  |  |  |  |  |  | binding result [10]: binds
4 | B3 |  |  |  |  |  |  | 2.25 | 9.84 | 13 | binding result [11]: no binding (tested: 20X the primary antibody concentration)
5 | Ac-FRRCFRLGGGGGGGRRKKGGKDFVVKR-NH2 [Compound TIM 20 (PRE 1 and PKI 4)] | -9 | -29 | 19.8 | 0 | 6.7 | 15.1 |  |  |  | 
